The source of these data is US20110236679A1 (FUJIFILM, published 2011).

Test [1] deals with T1, MBP-VH(BGP) and MBP-VL(BGP), separate MBP-fused VH-region and VL-region polypeptides of the anti-osteocalcin ….
T1 construct: Two separate chains, not linked, on SENSORCHIP CM5; Substrate I was made from the 1:1:1 complex with the BGP heptapeptide, which was then washed off; In J the chains were immobilized one after the other without antigen; Both entries as printed start with the MBP leader; also called immobilization substrates I, J
In words: SPR (BIACORE 3000), BGP heptapeptide over immobilized MBP-VH(BGP) and MBP-VL(BGP).
Procedure: Commercially available SENSORCHIP CM5 (trade name, manufactured by GE Healthcare) was set in a Surface Plasmon Resonance Analyzer (trade name: BIACORE 3000, manufactured by Biacore). The substrate surface was stabilized with HEPES buffer solution for SPR (20 mM HEPES-HCl, 150 mM NaCl, pH 7.4) at a flow rate of 10 μl/min, and then 70 μl of a mixed aqueous solution of 0.2 mM EDC and 0.04 mM NHS was injected thereonto. Thereafter, 50 μl of a two-fold dilution of the above complex sample solution with an acetate buffer (pH 4.5) was injected onto the substrate sample, and then blocking treatment was performed with an ethanolamine solution.
Time-dependent change in binding over a period of 10 minutes from starting the addition of the BGP heptapeptide was measured using BIACORE 3000. The binding ratio of the BGP heptapeptide was obtained by dividing the binding amount of the BGP heptapeptide over the 10-minutes-period by the immobilization amount of the antibody fragments.

The target in test [2] is T2, lysozyme (hen (hen egg lysozyme, as named for the …, UniProt P00698 19-147)).
T2 construct: also called hen egg lysozyme; HEL
In words: SPR (BIACORE 3000), 100 nM lysozyme injected for 10 min; lysozyme bound divided by fragments immobilized; fragments immobilized as 10:10:3 complex with lysozyme, antigen washed off. Here is the method: (§1) Time-dependent change in lysozyme binding over a period of 10 minutes from starting the addition of lysozyme was measured using BIACORE 3000. The binding ratio of lysozyme was obtained by dividing the binding amount of lysozyme during the 10-minutes-period by the immobilization amount of the antibody fragments.
(§2) The binding amount of lysozyme was calculated and expressed as a relative value, assuming that the binding amount of lysozyme in Comparative Example 2 is 1.

Test [3] deals with T2, lysozyme. Description: SPR (BIACORE 3000), 100 nM lysozyme injected for 10 min; lysozyme bound divided by fragments immobilized; VH and VL fragments immobilized one after the other without antigen. As for the experimental part:
as §1, §2

T2 sequence (P00698 19-147 limits assumed): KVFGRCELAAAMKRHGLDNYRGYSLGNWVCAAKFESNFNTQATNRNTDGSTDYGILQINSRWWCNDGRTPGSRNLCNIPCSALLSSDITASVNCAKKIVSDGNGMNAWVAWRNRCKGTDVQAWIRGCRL

B1: C-terminal heptapeptide fragment of BGP (RRFYGPY) (peptide)
peptide: RRFYGPY
notes: also called BGP heptapeptide; osteocalcin C-terminal heptapeptide
For B1, the binding result in test [1] is recorded as “binds”.

B2: VH(HEL)-His6 and VL(HEL)-His10, separate VH-region and VL-region polypeptides of the anti-hen egg lysozyme antibody LxE16, immobilized together on a sensor chip (other)
VH: EVQLQESGPSLVKPSQTLSLTCSVTGDSITRGYWSWIRKFPGNKLEYMGYISYSGSTFYNPSLKSRISITRDTFKNQLYLQLNSVTTEDTATYYCAEYDGTYWGQGTTVTVHHHHHHGAAEQKLISEEDLNGAA
VL: VEFAAQPAMASTDILMTQTPATLSVTPGDSVSLSCRASQSIGNNLHWFQQKSHESPRLLIKYASQSISGIPSRFSGSGSGTDFTLSINTVETEDFGMYFCQQSNSWPYTFGGGTKLEIKRAAAEHHHHHHHHHH
notes: Two separate chains, not linked; Substrate G was made from the 10:10:3 complex with lysozyme, which was then washed off; In H the chains were immobilized one after the other without antigen; also called immobilization substrates G, H
Consider B2, for which the Lysozyme binding ratio in the test with lysozyme [2] is 7.6 relative value (text: Comparative Example 2 = 1; in the table Comparative Example 4 stands at 1); with lysozyme [3], 1 relative value (text: Comparative Example 2 = 1; in the table Comparative Example 4 stands at 1).
